# Laboratory results from the Human Domainome abundance scans (Beltran et al. 2025).
# ± gives the uncertainty stated by the source.
# B1: Ankyrin-2, residues 3571 to 3650; numbered along this chain, Q01484 (parent)
# chain: ERLAYIADHLGFSWTELARELDFTEEQIHQIRIENPNSLQDQSHALLKYWLERDGKHATDTNLVECLTKINRMDIVHLME
# Variants of: B1
# Assay: abundance fitness (aPCA) (normalised: wild type 0, dead -1); higher = more abundant; growth selection in yeast, the domain comes from the species named
# Settings: Homo sapiens
row,Variant,abundance fitness
1,ERLAYIADHLGFSWTELARELDFTEEQIHQIRIEKPNSLQDQSHALLKYWLERDGKHATDTNLVECLTKINRMDIVHLME,-0.042 ± 0.12
2,ERLAYIADHLGFSWTELARELDFTEEQIHQIRIENPNSLQDQSHALLKYWLERDGFHATDTNLVECLTKINRMDIVHLME,-0.023 ± 0.094
3,ERLAYIADHLGFSWTELARELDFTEEQIKQIRIENPNSLQDQSHALLKYWLERDGKHATDTNLVECLTKINRMDIVHLME,-0.004 ± 0.18
4,ERLAYIADHLGFSWTELARELDFTEEQIHQIRIENPNSLQDQSHALLKYPLERDGKHATDTNLVECLTKINRMDIVHLME,-0.664 ± 0.059
5,ERLAYIPDHLGFSWTELARELDFTEEQIHQIRIENPNSLQDQSHALLKYWLERDGKHATDTNLVECLTKINRMDIVHLME,-0.36 ± 0.18
6,ERCAYIADHLGFSWTELARELDFTEEQIHQIRIENPNSLQDQSHALLKYWLERDGKHATDTNLVECLTKINRMDIVHLME,-0.086 ± 0.22
7,ERKAYIADHLGFSWTELARELDFTEEQIHQIRIENPNSLQDQSHALLKYWLERDGKHATDTNLVECLTKINRMDIVHLME,-0.179 ± 0.11
8,ERLAYIADHLGFSWTELARELDFTEEQIHQIDIENPNSLQDQSHALLKYWLERDGKHATDTNLVECLTKINRMDIVHLME,-0.073 ± 0.18
9,ERLAYIADHLGFSWTELARELDFTEEQIHQIRIENPNSLQDQSNALLKYWLERDGKHATDTNLVECLTKINRMDIVHLME,0.051 ± 0.16
10,ERLAYIADHLGFSWTELARELDFTEEQIHQIRIENPNSLQDQSHALLKYWLERDGKHATDTGLVECLTKINRMDIVHLME,0.072 ± 0.046
11,ERLAYIADHLGFSWTELARELDFTEEQIHQIRIENPNSLQDQSHALLKYWLERDGKHATDTRLVECLTKINRMDIVHLME,-0.013 ± 0.05
12,ERLAYIADHLGFSWTELARELDFTEEQIHQIRIENPNSLQDQSHALLKYWLERDGKHATDTILVECLTKINRMDIVHLME,-0.169 ± 0.1
13,ERLRYIADHLGFSWTELARELDFTEEQIHQIRIENPNSLQDQSHALLKYWLERDGKHATDTNLVECLTKINRMDIVHLME,-0.007 ± 0.043
14,ERLAYIADHLGFSWTELARELDFTEEQIHQIRIENPNSLQDQSHAPLKYWLERDGKHATDTNLVECLTKINRMDIVHLME,-0.885 ± 0.42
15,ERLAYIADHLGFSWTELARELDFTEEQIHQIRIENPNSLQDQSHALAKYWLERDGKHATDTNLVECLTKINRMDIVHLME,-0.191 ± 0.065
16,ERLAYIADHLGFSWTELARELDFTEEQIHQIRIENPNSLQDQSHALLKYWLERKGKHATDTNLVECLTKINRMDIVHLME,0.097 ± 0.17
17,ERLAYIADHLGFSWTELARELDFTEEQIHQIRIENPNSLQDQSHALLKYWLERSGKHATDTNLVECLTKINRMDIVHLME,-0.095 ± 0.045

row,Variant,abundance fitness
1,ERLAYIADHLGFSWTELARELDFTEEQIHQIRIENPNSLQDQSHALLKYWLERMGKHATDTNLVECLTKINRMDIVHLME,-0.013 ± 0.1
2,ERLAYIADHLGFSWTELARELDFTEEQIHQIRIENPNSLQDQSHALLKYWLEREGKHATDTNLVECLTKINRMDIVHLME,-0.02 ± 0.13
3,ERLAYIADHLGFSWTELARELDFTEEQIHQIRIENPNSLQDQSHALLKYWLERCGKHATDTNLVECLTKINRMDIVHLME,-0.134 ± 0.15
4,ERLAYIADHLGFCWTELARELDFTEEQIHQIRIENPNSLQDQSHALLKYWLERDGKHATDTNLVECLTKINRMDIVHLME,-0.25 ± 0.19
5,ERLAYIADHLGFSGTELARELDFTEEQIHQIRIENPNSLQDQSHALLKYWLERDGKHATDTNLVECLTKINRMDIVHLME,-0.978 ± 0.13
6,ERLAYIADHLGFSLTELARELDFTEEQIHQIRIENPNSLQDQSHALLKYWLERDGKHATDTNLVECLTKINRMDIVHLME,-0.268 ± 0.077
7,ERLAYIADHLGFSWTELARELDFTEEQIHQIRIFNPNSLQDQSHALLKYWLERDGKHATDTNLVECLTKINRMDIVHLME,-0.25 ± 0.13
8,ERLAYIADHLGFSWTELARELDFTEEQIHQIRIENPNSWQDQSHALLKYWLERDGKHATDTNLVECLTKINRMDIVHLME,-0.045 ± 0.12
9,ERLAYIADHLGFSWTELARELDFTEEQIHQIRIENPNSVQDQSHALLKYWLERDGKHATDTNLVECLTKINRMDIVHLME,-0.043 ± 0.069
10,ERLAYIADHLGFSWTELARELDFTEEQTHQIRIENPNSLQDQSHALLKYWLERDGKHATDTNLVECLTKINRMDIVHLME,-0.1 ± 0.12
11,ERLAYIADHLGFSWTELARELDFTEEQIHQIRIENPNSLQDQSHALLKYWLERDGKHATDTNLVECYTKINRMDIVHLME,-0.754 ± 0.39
12,ERLAYIADHLGFSWTELARELDFTEEQIHQIRIENPNSLQDQSHALLKYWLERDGKHATDTNLVECTTKINRMDIVHLME,-1.16 ± 0.34
13,ERLAYIADHLGFSWTELARELDFTEEQIHQIRIENPNSLADQSHALLKYWLERDGKHATDTNLVECLTKINRMDIVHLME,-0.104 ± 0.15
14,ERLAVIADHLGFSWTELARELDFTEEQIHQIRIENPNSLQDQSHALLKYWLERDGKHATDTNLVECLTKINRMDIVHLME,-0.084 ± 0.19
15,ERLAYIADHLGFSWTELARELDFTEEQIHQIRPENPNSLQDQSHALLKYWLERDGKHATDTNLVECLTKINRMDIVHLME,-0.912 ± 0.12
16,ERLAYIADHLGFSWTELARELDFTEEQIHQIRHENPNSLQDQSHALLKYWLERDGKHATDTNLVECLTKINRMDIVHLME,-0.096 ± 0.17
17,ERLAYIADHLGFSWTELARMLDFTEEQIHQIRIENPNSLQDQSHALLKYWLERDGKHATDTNLVECLTKINRMDIVHLME,0.089 ± 0.086
